{"source": "the domain aggregation screens of Martell et al. (2025)"}
{"experiment": "soluble fraction after stress (log2 fold change); higher = more stays soluble; pooled small domains, quantitative proteomics", "details": "stress: 50 degC", "how_it_was_run": "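Pooled custom libraries of small protein domains were each held under stress at 50°C. The read-out, high-throughput quantitative proteomics, tracked how much of each protein stayed soluble. This is reported as a base-two log fold change used to indicate aggregation propensity. Higher values mean more protein remains in solution.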"}
{"sequence": "HMHSQVFTDPDKAKNAVVKLGAPLVVKADGLALGKGVIIAQNPQAAKEAVASVGSSGISSISVT", "soluble fraction (log2)": 0.0607}
{"sequence": "HMEQPAPSTTVDILGGGRAALVTANRELGLALADDEIDYLTDSFTQLGRNPVDVELMMFAQA", "soluble fraction (log2)": 0.00743}
{"sequence": "HMRNTPQRRHAILALLSEQGEVSVDALAKRFSTSEVTIRKDLAAMESHGLLLRRYGGAVPMPQELI", "soluble fraction (log2)": -0.928}
{"sequence": "HMGSRAEAKEFLQTMLADGRQLATDMEEARQAHDIADRTLRRARKELNVQVYRDGNAWYWELPTPIK", "soluble fraction (log2)": -0.0501}
{"sequence": "HMTKQIILVHVAGKVKKPDVYPLLQGSRVADAIKAAGGAKKGVELNDINLARVLIDGEQVFVGYVPE", "soluble fraction (log2)": -1.58}
{"sequence": "HMEYQTVEKSEAEQIIQELEKAERLALKVYSKNDIITGISVSDGKSYYFSAELVPMLKNIIENPEIKIL", "soluble fraction (log2)": -0.623}
{"sequence": "HMTIATLGERIRKLRKERGLTLAELAGDKLSKGMLSLIENNRAKPSMESLEYIAKRLGVEPAELLE", "soluble fraction (log2)": 0.176}
{"sequence": "HMNATPDMERYWASSAAEGRALEPLYAVSRGDGGEPLWWSPSRAQAERMAREEGGPLTVDRIDPP", "soluble fraction (log2)": -0.0411}
{"sequence": "HMRVSNADALIGRRGKANSDIRRGDYGWVAIDGDVWKSKLADDITEDIPMGAIVEVLSRDSIILTVKP", "soluble fraction (log2)": -0.324}
{"sequence": "HMKDHKSKWMAKTELDSIAKNLSKKHAISLDYEEDGTRFYAGGQSPLGIGRLFTVFVAPRNGHWSDQLR", "soluble fraction (log2)": 0.189}
{"sequence": "HMEKTLAERVNDILAEIKMTKQELAMQLNISRSAVSQYLNGKYSSNPEAIEARLRDFVSSYDRG", "soluble fraction (log2)": -0.0754}
{"sequence": "HMATETMGMIIRRLRREHGLTQEELAASIGVTAQAVSKWEKDLGMPDISQIVPLAGAFNVRTDVLFGLE", "soluble fraction (log2)": -0.98}
{"sequence": "HMILSTNFFRHIVPKEYQTSYGTMKKWLTDHNVIGTNSIPQGIGYRIPTQGLSSTFSFKVVDVLPDR", "soluble fraction (log2)": -0.525}
{"sequence": "HMGKVTILSNPVKDALVIMGLHNAETIDVRLFDNTGRLVMQGSQSRMDISSLSPGLYILQVNGKILKVIK", "soluble fraction (log2)": -2.21}
{"sequence": "HMTTIKLTQEDVEKIKSLPKRTFLIGNLQQTGLYDEKTRRFYYLDANGEWNGRLAIINTPPPPPPPP", "soluble fraction (log2)": 0.199}
{"sequence": "HMSILPGVYRHYKGNHYQVFYLAKHSETLEDMVVYQALYGERGIWVRPASMWNETVDDQGKQVKRFTYI", "soluble fraction (log2)": -0.24}
{"sequence": "HMYSDERLQTFMELLPFFVEELSNKHVTRYNVWQNYREAYPNGYGRSQFFFHLGQNLEAKKK", "soluble fraction (log2)": -1.17}
{"sequence": "HMKVKIFNGMKLVTNSTGLTVDGKPAALDESNADAKTYSQGLYVFIVYQSGKIAVMQDGKFLGYA", "soluble fraction (log2)": -1.77}
{"sequence": "HMALKPKITIEELIRILNESKDLSDSETAKILNKDYTTAKYGKEFTSINVQGARYALDIATNTS", "soluble fraction (log2)": -0.135}
{"sequence": "HMHLLGASIAAYRKKAGMTQEDLGRALFVSGQAVSRWERGGTPDSDMLPKIADVLGISLDTLFGRS", "soluble fraction (log2)": -0.559}
{"sequence": "HMKAPDSQYKPLTDFQTDASFQKLDAYLRNRYPAMLANAVVYDVLRTPDAISYRVNYQVDNKMITINAAVT", "soluble fraction (log2)": -0.126}
{"sequence": "HMIGGASVFKQFLPLADKMLLTLIHSEFEGDTYFPVFSEKEWLLQESSSLLSATGYQLSFQTYIR", "soluble fraction (log2)": 0.0328}
{"sequence": "HMLYKNIAKKLRFRINSDEFAIGDVLPTERQLMEEYQASRVSIRKAIDELVAIDLIEKKQGSGTYIKQKEV", "soluble fraction (log2)": -0.919}
{"sequence": "HMTPEPVREALTFQEGRVFALAAKNMTNAEIAQSLSLKLKTVENYMSIIYQKLALKNRYELLVYARKSGV", "soluble fraction (log2)": -0.631}
{"sequence": "HMTDSLELADLLRRAIITGEYKPRERLVEMELAQKYSVSRTPVREALKHLEALGLVKMERYKGAMVAD", "soluble fraction (log2)": -0.46}
{"sequence": "HMKQLNKRQDDILSLAEKEGYVSVENLAKTFTVSQQTIRRDINYLSDHEFLVRTHGGAFYSSG", "soluble fraction (log2)": 0.00837}
{"sequence": "HMHLKDEHGLTPKQRAFADEYVITLNATVSYKKIYSVKRDSVASTNGSRLLGNANVKAYIDKRLEE", "soluble fraction (log2)": -2.19}
{"sequence": "HMEKPTRNKLVEIIIQNKNVTTEQMANLLNISRRAVAKHIKKLQEEGIIRRIGPDFGGHWEIVK", "soluble fraction (log2)": 0.0258}
{"sequence": "HMLEINTIIGNNLKKIRQEKKLTLDELAGITGVSKGMLSQIEKGTTNPTINTIWKISNGLNVPYTYLLEDD", "soluble fraction (log2)": 0.183}
{"sequence": "HMTTGREGLIGAVGTVRQAIAPEGYVFVEGELWRAKSPAGPLEPGTTVRVIAIDGLTLTVMPAE", "soluble fraction (log2)": -0.348}
{"sequence": "HMSGVIVPDIYNKTLAEAVASLEGEGFSTEKKEGYSDTVPKGNVMSQKPEAGTSAERGSTVTITISQGPQ", "soluble fraction (log2)": -0.0107}
{"sequence": "HMEEYLENLTQSKLLHMLDQLSPAYKTVFTLFVLDELSHEEISKMLNISIGTSKSNLFRARKVMRVLMESE", "soluble fraction (log2)": -0.397}
{"sequence": "HMNGKWKLRIIKELLHSNIRFGQILKNIPDISPKVLSQQLKEMEEDGIIERIVISEMPPNVEYVLTDMGE", "soluble fraction (log2)": -0.789}
{"sequence": "HMIQLTDAEFNELVTYIKKNYGINLIKKRLLIEARMYSVLAKHGFTSFTEYINLIKRDPAELNTMLNKLTT", "soluble fraction (log2)": -1.72}
{"sequence": "HMQEEMIRGDIKLNTVMQTVHLAVGTETERNWQPVETTAKEFELLKLLMENPGVTLKKEYLFHMLI", "soluble fraction (log2)": -0.102}
{"sequence": "HMSRGTRIDPNWQPSPEDRALARAEGFSDPEIDREALQFRDYWLGASGSNAVKLDWSATWRNWVRRAATNF", "soluble fraction (log2)": 0.0774}
{"sequence": "HMARKFQKDTGYLNKKERTWLLDFFPSLKKYLYTGAYIRSIIVVESNVTYTDKELPSNYTFTYKFA", "soluble fraction (log2)": -0.252}
{"sequence": "HMRTLRENIMDYFKQQTIIQKSSVILLPMSKRQLADYFGVQRPSLFRELKKLKEEGIIEINNRTITIK", "soluble fraction (log2)": -1.27}
{"sequence": "HMADLNFHQQIRSLPPEQQEILLLRFGQELTLRQIAQVTGVPLRTVQSRLRAALKKLKSQLEKEE", "soluble fraction (log2)": -0.39}
{"sequence": "HMESNDSNIEDDFYEGLKSMRKGDLKMSVVFFTRVIEKKPTFAEAWNRRATVYYMLGKFDKSMFDINETLK", "soluble fraction (log2)": -0.115}
{"sequence": "HMGGEHPIPEDWAVNEANYEHGAKFYGYTRAHVDAEAQAFRDQYAANGKKYVDWDAHFRTFMRWQNERRYG", "soluble fraction (log2)": -0.111}
{"sequence": "HMYLGRKATLLSSISGEKMGNAEVLADGNLMSIYVKSLTGEPLSYGSTVLIIKHSEDQNFYLVQN", "soluble fraction (log2)": -2.58}
{"sequence": "HMENISVESKMKLLLKSLKTRDFISLPELVLKGESKLAISVILVAALELNRKGYIEVVQAEQFGEIYFKNT", "soluble fraction (log2)": -0.191}
{"sequence": "HMTHEIKIKSHSLFASEGTKYQWYLNNIKINDATSQELEITSPGIYKLEMTNFDGDVIEKQIIVGLTNS", "soluble fraction (log2)": -2.94}
{"sequence": "HMHRGEIVDGVIASVNPRSILIDIGGKSDALVHPRELERMSDEDLRSLKPGQDVSVYVIETDSDGTMLVSL", "soluble fraction (log2)": -0.0402}
{"sequence": "HMKKPAERRKELVDAAAHLFAEKGYENTSVRDILDAVGGAPGMFYYYFKSKQDIYVAVMEDF", "soluble fraction (log2)": -3.54}
{"sequence": "HMISEKEIKIIEDILARWNGKLTWDDFTSKVAKKLNLPSLSKFTLMGYPEIKQAFLTRKQTLK", "soluble fraction (log2)": -0.328}
{"sequence": "HMTLKVQLSEISKMVSLSYIAKKYFNKSQSWLSQRINGNTIHNKPAKFTSEELATLQFALKDIGNILNSTV", "soluble fraction (log2)": -2.8}
{"sequence": "HMPTSPKANFLKELPQEFTRKQAVTIGDKLNIKERTVDNYLAKLEQAGYLVKPKAGYYQKIKS", "soluble fraction (log2)": 0.128}
{"sequence": "HMPDITAAVARTLQALRADRGWSLDQLAARSGVSKGVLVALEQGRSNPNLATLARIGDAFGVPVTLLVDL", "soluble fraction (log2)": -0.543}
{"sequence": "HMGNAQELQKKLEGLKGISGIEKLESDHYAEKYLVRITQPVDHKNPAAGTFTQRVIVAHVGFDRPTILVT", "soluble fraction (log2)": 0.511}
{"sequence": "HMGNVRSWKGWTSAGGTRVQMRQGDSINSMARRYGVPIQAIVAVNGIDDPAKVQPGQSVIIPTYVY", "soluble fraction (log2)": 0.0448}
{"sequence": "HMEYTVNRLAQISGVSKRTLRYYDEIGLLRPERVNPNGYRIYGQMQVDLLQQILFYRELGLPLEEIREII", "soluble fraction (log2)": -0.467}
{"sequence": "HMTPIELIEKTIELIENERKVQKLQQKELALKADIPFPTYKDFIYKKRASLENILKLFIALRLF", "soluble fraction (log2)": -0.342}
{"sequence": "HMREWPLWEIFIRGQHGLNHRHVGSLHAPDAAMAIGNARDVYTRRNEGVSIWAVRSADVVASVPSE", "soluble fraction (log2)": -2.33}
